Test results published in publication PMC3568255 (Protein expression and purification, 2012).
*: point of attachment. Biotin = O=C1N[C@H]2[C@H](CS[C@H]2CCCCC(=O)*)N1

What was measured:
SEC = target: the molecule itself; assay: SEC
[1] = target: MBP-CLR ECD-H6:RAMP2 ECD-H6 complex (recombinant AM receptor ECD complex) (human, UniProt Q16602 29-144; O60895 36-140); assay: AlphaScreen or HTRF
Chain of MBP-CLR ECD-H6:RAMP2 ECD-H6 complex (recombinant AM receptor ECD complex) (Q16602 29-144, one chain of several): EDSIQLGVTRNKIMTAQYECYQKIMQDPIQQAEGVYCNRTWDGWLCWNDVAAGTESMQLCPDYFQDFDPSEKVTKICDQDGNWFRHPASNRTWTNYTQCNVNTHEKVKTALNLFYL

Binder | stoichiometry N (SEC) | binding result [1]
RAMP2 ECD-H6 (RAMP2.36-140-H6), isolated extracellular domain of receptor activity modifying protein 2 (domain or fragment, human, UniProt O60895 36-140, looked up) NPHEALAQPLPTTGTPGSEGGTVKNYETAVQFCWNHYKDQMDPIEKDWCDWAMISRPYSTLRDCLEHFAELFDLGFPNPLAERIIFETHQIHFANCSLVQPTFSD | 3 | –
Biotin-GTATVQKLAHQIYQFTDKDKDNVAPRSKISPQGY-NH2 (SMILES CC[C@H](C)[C@H](NC(=O)[C@H](CCC(N)=O)NC(=O)[C@H](Cc1c[nH]cn1)NC(=O)[C@H](C)NC(=O)[C@H](CC(C)C)NC(=O)[C@H](CCCCN)NC(=O)[C@H](CCC(N)=O)NC(=O)[C@@H](NC(=O)[C@@H](NC(=O)[C@H](C)NC(=O)[C@@H](NC(=O)CNC(=O)CCCC[C@@H]1SC[C@@H]2NC(=O)N[C@@H]21)[C@@H](C)O)[C@@H](C)O)C(C)C)C(=O)N[C@@H](Cc1ccc(O)cc1)C(=O)N[C@@H](CCC(N)=O)C(=O)N[C@@H](Cc1ccccc1)C(=O)N[C@H](C(=O)N[C@@H](CC(=O)O)C(=O)N[C@@H](CCCCN)C(=O)N[C@@H](CC(=O)O)C(=O)N[C@@H](CCCCN)C(=O)N[C@@H](CC(=O)O)C(=O)N[C@@H](CC(N)=O)C(=O)N[C@H](C(=O)N[C@@H](C)C(=O)N1CCC[C@H]1C(=O)N[C@@H](CCCNC(=N)N)C(=O)N[C@@H](CO)C(=O)N[C@@H](CCCCN)C(=O)N[C@H](C(=O)N[C@@H](CO)C(=O)N1CCC[C@H]1C(=O)N[C@@H](CCC(N)=O)C(=O)NCC(=O)N[C@@H](Cc1ccc(O)cc1)C(N)=O)[C@@H](C)CC)C(C)C)[C@@H](C)O) [B-AM(19–52)NH2[C21A]] | – | binds
